# In the supplement of paper PMC12636428:
# System: Saccharomyces cerevisiae
# Assay: transcriptional activation domain activity (GFP:mCherry ratio, weighted mean of sorted bins, harmonized to initial dataset scale) (arbitrary fluorescence ratio units); higher = stronger transcriptional activation
# Conditions: beta-estradiol 1 µM; induction time 4 h
# Outline: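 Values are activation activity, found as the read-weighted mean of bin median fluorescence, averaged across barcodes and then mapped linearly onto the initial dataset scale. Barcoded protein tiles fused to an estradiol-inducible synthetic transcription factor were integrated at the URA3 locus of GFP-reporter yeast diploids. Cells were induced for 4 hours at 30 °C with 1 uM beta-estradiol in SC, sorted into 8 bins by GFP:mCherry ratio, and barcode-sequenced, with tiles under 50 reads discarded.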
row,Sequence,transcriptional activation domain activity
1,KEEDEAPAPRKARGKAKKAIVEEEEAPESEVEAPEPKAKKGRGRKAAVKKVVS,< 6570
2,KEEEDRKRAEEEEERERERRRQDEVDRRRRMQDEAKQREAEAKKQAARAAALA,35500
3,KEEEQKELDRMAREEKKVWGDALRLGRTSWSESVMVWSHVMALRVFVETVLRY,62900
4,KEEEQKGEKEEDESEKETEKEEKKEEKKEKRKLMRRKPKAEELESEASEDERE,21700
5,KEEESNELKSEQEPPSAVESIAAVMTPSDNGSRFYIKRRILIGNVSKYIAPER,23100
6,KEEETKPEEAAATEATPEATTEPAAEGAEAPKEEAKTDAAAETKKEDRPKSPG,20500
7,KEENKKDDLKEATKKGRKPRAAKEEAKEEAEGVKPKGRKRKATEEASDEIVVA,23400
8,KEESGAKTPQSPASKSADDKNATREKEGAGSPDAAKGKGNEEVQTESGRDDRK,28400
9,KEGMGWVDVLFSVCTSIILVQLVFVLGWWLLFLFLSMYHMLTFCIIIFILYKY,53300
10,KEKAKAKAKERKREERRKEKEKRAKEKEREKKRLREKEKRRKEKEKEKRRKEK,14900
11,KEKEDYALAIKLYADSIIITLRRLFKELDYIEIKSLIISSMFKVLLYNLLIYK,66200
12,KEKEKQERDARRREKEGAAAAAAGEKRKVEEGSAGGEAVKKAKVGAAAAAVAA,47800
13,KEKEVKAEVEEDGSEQEEGEGEEEEEGATRSSARKGKGRATAGGRKTRRGAAG,19400
14,KEKSASERKEEKRQKKMRGEDVSDSEEEKRKRKDKQRGQRVHAVGSGTTSGAS,35900
15,KEREQREQREQRRKEEREREKERERERELRERERERERERQQAREEAERAAMG,15400
16,KESPILVGLICIFNASTFLQMMFYAAISLPLNEDACFGVNFVQTLLWHISFCT,74000
17,KESRKERHHDSDRRHKRRHRSREGGEGRDRDRDHRRHHRHGRDRSRSRERKLG,67400
18,KESTTPSGTIKEVEGGEKGEEGTVAKQNNGEKGLVKSAGRNFLVDERVLRQSF,40600
19,KEVAAAEVAPADTAAAEAKPSKKEKKEKEKKPAEGPEGGKKKEKAAGGGGKAA,24500
20,KEVASADTKPADAPAGEAKAPKKEKKEKEKKPAEAAEGGKKKEKAAGGGGKAA,36100
21,KEVKEGEEGEKPKRGRKRKEAPAENGEEKEEKEPAAKKAKPASKAAPGSKPAS,12700

row,Sequence,transcriptional activation domain activity
1,KEVKEGEEGEKPKRGRKRKEAPAENGEKEPAAKKAKLASKAAPGSKPASKAAS,28300
2,KEVMDQIHAIWCILLYLYYGTLETDHVFRFCFAPNVSRPLSELEQRFFNERHG,48000
3,KFANNVSEMKKLGARDFEDILQNLIPVVDGLLDEPYNSWILTLLFRLAEWHAL,42400
4,KFCAITLAGTWGKVVLYSLAMTRVVSYCYNIYYMDSVFSRTIRPGIGICFTSL,67100
5,KFFVRHQHKLYYVILSLGRFNLHNLSFTYLFTAPRVRYRWLEIFGICVFFTWY,55900
6,KFHYRCGVAAKDTTESLRWVVADHYTWFTCTHCAAHKAHWYFDGSLGLVRLWF,69200
7,KFIGYQWAYFAVISGALLYAWSRVIMLFVLRILPQDIRLIAFIITSIYCLILL,24900
8,KFIWRSSWSLPKIMYLLIRYLGLVCLLYYAMNAVTVQKSIAVCQLYIISMHTV,67000
9,KFKTFPLFLPRINFHSIPSFNILLSSFPNSIFLNVLFRISLYYIWAYFLWCAL,52000
10,KFLRHVLLKYFSFRLRSWMLNWAIGCVVRLFFFILHLLHPSWIFFLIYPYILN,54400
11,KFNLLEWSEILSLLTCYRLLIAMYSFRSLVIVIASYIVFGLSVFSLLVRLLFL,38100
12,KFNNRLSSDSTSPIKYEADVSAGGKISEDNSTKGSSKESSAIADELDWLKFGI,40600
13,KFPLFMLIAQGSFAFILWCFPFRSFLFIWALLMFTHTPLPSLLLLASCFSFSF,60100
14,KFQERMMVLKEIKLISLGDVRKITYSRMGYTDWKIVVLGRMWNLRFFVATGWD,64400
15,KFSLGGALYLLTRYCVLLQLIFDVTYEMQPPWTLNNVVWVANISDLVSGISIH,34400
16,KFTAFTFLPLTLWHEFSFFFNLYFLVVALSQCIPVLRIGYLSSYIVPLVFVLA,54900
17,KFVDLGIFKAEGTRLRCRMCGFLIASLVLCMHMSQACPMYPRYPSSNMHEHPD,29300
18,KFWFFLLFYYGFYNLTALLMVSQYFNLYSFHWWPKSIGGLWSTFFFWLFSMFL,58400
19,KFYARILKLLLLLNHILIIAGVNESPYSKDKVIRYLFNMFRLWTTKRSAKENQ,62000
20,KFYVIYTLFMVVFFMVLTICYYTNGSYGRDALGLCNFKEWNGRLVSRVYMMYL,45000
21,KGAKDEKKEDAKGGEEGKDATKQREKEESKGGKLESTPSKEFSDGKEQQEKKG,40400

row,Sequence,transcriptional activation domain activity
1,KGANQAVACAKLSRSRPQPSSSTSSSSTEAGANDAETHATAHVSMLGAVGDDS,18700
2,KGAPKKSKGEEKEEVVAEETKVEVKVVKETKKVDKAAKAETKKDEVKKVKKVE,46000
3,KGDLESFRRITDLNLTHEHARWFCRYHMFYQLGNYCEIYLWRSIFRKVFLLTG,54700
4,KGEERGMEKDKEKDKDRDREVKKEKAREARADKEGARPKAAIRQVKVKSAVKQ,56500
5,KGEKDKENDKGEKGEGEKKGENRSRRRRGGRGRGSGDKDKEKDKDGGGGAKKA,27800
6,KGETAFVEVDEFNRRKDGKEEGGVHNSDMVIKVYLPPHFRVRIALFVLAIWAF,23800
7,KGFDSQCIEEWDPILFSAAEIWPTKGKPIALVEMDPIDFDFDVDNWDYVTRHL,174000
8,KGFSLTELVFWLWSLGFILDELVGFSDAGFTLYVMSLWNWFDLIILLLLCSYA,49900
9,KGGASPEDASAQSGGSRSKEAKETGSSPTGGKVGNSGGKSSSSSGGPEEKNKD,35600
10,KGGEKKEGEEQNGGGEKKGGEEQKGGGEKKGRWVEEKGGEEQKGGAIAAAGQN,14200
11,KGGEYHRRKGDETSSQGQMGKKVKSEKGEEEKERRKKKERVKQHVVNVRVAEQ,41900
12,KGGGAGGGKRAKKEESSDDEAAKPLAKRGKGTANGRANGKARASSAAPVDNQK,44600
13,KGGKRKRREEDDGEEKDSFGGRRGDDGPSRIAKNEGGDGRAGKHKRSGDDGKE,31100
14,KGGRKCKKGRAGEEAGMPARRRKGGERGGRGGKTGARGGEEGGGGEGGAARNG,34800
15,KGGSEKSGNAGKKEDAGKKEAEKKKVEAGKNQGKGKQNTGSGGNKKAAKKGKK,18400
16,KGGSSPEEASAQSGGARSKEAKETGSSPTGGEVGKSGGKSNKSESSEEKSKDG,19900
17,KGHVKTGILSANDGVPPTPNLLDYDWNNLNITGYEWISSELRDDALLSAVTLQ,131000
18,KGIAGLGPTKTIGLFVVLYIATAIFVFVYIVMQFLLVFGTLTERWPAGHLAFC,52200
19,KGKAAKSGWDDDEDEKKKEEGEGEGGDGGDKSGDIGAGGDGDKKDEASGNADG,27500
20,KGKGKGKEGKGKGRREGEGGRGTEGREMGEKEREEEREEEREGKEGRREGGKE,24100
21,KGKGRENVPESESESEEDGDSSPPKAPVRGARGRGRGASRGRGRGRAPAPAAA,< 6570

row,Sequence,transcriptional activation domain activity
1,KGKGRREGGEGGEEREGNRERKRGRGREGKGGKERGNGRGKEGQRKEEREGKG,33500
2,KGKGRRRGRGRGRGRGRGREGKGKGREGEGKGKGKEKGKGKGKGKGKGKGKGR,28000
3,KGKQRSEGGGGNRKGGRPPRRIDEDAADSSSNDAGAEGGAKGSEPTKAAKAAS,33400
4,KGKSKERKTESASTSGSEAKESEAAPKEEKEDAKKEDDKKEKAEEKTEEKAEE,51500
5,KGLNGPKKEDGGDGESRKRGRPEEDEEERKEGGGGGRRARRRERLQGAAGGGS,18600
6,KGRAEKKKKSSRRRDESESEGEEGEGGGGGGGRAPPKKRARLASKKEAQSGKY,31500
7,KGRDEEDFPLDYFPVSVEYPTEENAFDPFPPQAFTPAAPSMPISYDNVNERDS,33400
8,KGRGGGKGRGGGKERGGGKGRGGEGEGEGEGEREGGGRGKERGREGEREGERG,21800
9,KGRSRENSRQRGNEDRVARGRDESRSRKTGGREASEDRGRSISRQWTPKPAKR,22600
10,KGVAVADRVVKFVAGYVAYATEQDAAKRPEGEEDVETPSSRFVTKLLRHLLSG,56400
11,KHERDDEKERKHRKHDKPSKDKDGEDDDGEGRRHKKHRKHKERGSDDEDEHRK,22500
12,KHEREFEGNSNRDREVVQGKREGGGGERGGRGRGAGGGGERGRGRGNSGRGDG,12500
13,KHLAEAGLGIAAAGAAKELYDHRKHHRSSSVSSSGGEHNHNGRHIAAAALGAT,28000
14,KHLEAADGVEDDHRSTVIDQGNDELLVKWASDEGIIEKKPQGRFRLILGGGAS,70100
15,KHMHLESKPPQLPPKCSSLRKPTNTLQGTNHAYHEHILNTDMDLKILEDLCNI,64100
16,KHPQNTTTDIENEVENPVTDDNGNLKLELPDNLDNADFSKLLEFDAKNDEALF,33600
17,KHRSSINTVLVVGGDDKVVKQAGDALKGKLGVKGGGKGPRWSGKFIGVWKAAR,50100
18,KHYRRRLLQRDILKRKRWSIGLKTLVLLRDLGVFVHHHTVVKALQMQFIVLFG,57200
19,KIAAGAALATAAGVGLHHLRERQRSQSRSSSSERSGRSRSRHRLRHAAELGAA,64000
20,KIHIANMAQVAVFLLHKILYGIIPLFEISTCAYFPLLISLWHLNYLLFYTVMF,63200
